Read-outs that look alike come from different tables or passages of the source.
Assays:
[1] = Photophysical properties and fluorescence quantum yields of DFHBI and RNA-DFHBI complexes; type: physicochemical; conditions: this work
Experimental: The absorbance was measured at 448 nm and the fluorescence emission spectra was measured with 448 nm excitation for three different concentrations of the Acridine Yellow standard. The absolute quantum yield of Acridine Yellow was taken to be 0.47 as reported by Olmsted, Journal of Physical Chemistry 1979, 83, 2581-2584. The refractive index (η) was taken as 1.36 for ethanol and 1.333 for water (E. Hecht, Optics (4th edition), 2001). UV absorbance and fluorescence spectra were recorded on a Shimadzu 2501 Spectrophotometer (Shimadzu) or a Quantamaster Master 4 L-format scanning spectrofluorometer (Photon Technologies International) equipped with an LPS-220B 75-W xenon lamp and power supply, A-1010B lamp housing with integrated igniter, switchable 814 photon counting/analog photomultiplier detection unit, and MD5020 motor driver.
Quantum yields for DFHBI or RNA-DFHBI complex were determined by measuring the apparent quantum yields (Φsample.app) as a function of increasing total RNA (Ctotal RNA) at a fixed concentration of total DFHBI (CDFHBI). […] The RNA was renatured in buffer at 70° C. for 3 min and cooled to ambient temperature for 5 min prior to addition to the reaction solution. The DFHBI concentration was fixed at 10 or 20 μM in different replicates. The apparent quantum yield is described using the following equation: […]
Then, the apparent quantum yield is related to the dissociation constant Kd and concentration of DFHBI by the following equation: […]
Thus, the dissociation constants Kd and the quantum yield (Φsample) of RNA-DFHBI complexes were determined by least squares fitting to the above equation in Graphpad Prism software.

[2] = literature value (Nawrocki et al.); cited from earlier work
[3] = biological target: T1, protein lysine MTase SET7/9 (Homo sapiens, UniProt Q8WTS6); experiment: Protein MTase SET7/9 inhibition assay read out with Aeh1-4 biosensor; type: biochemical
T1 construct: purchased New England Biolabs Inc (Ipswich, Mass.)
T1 sequence (Q8WTS6 1-366): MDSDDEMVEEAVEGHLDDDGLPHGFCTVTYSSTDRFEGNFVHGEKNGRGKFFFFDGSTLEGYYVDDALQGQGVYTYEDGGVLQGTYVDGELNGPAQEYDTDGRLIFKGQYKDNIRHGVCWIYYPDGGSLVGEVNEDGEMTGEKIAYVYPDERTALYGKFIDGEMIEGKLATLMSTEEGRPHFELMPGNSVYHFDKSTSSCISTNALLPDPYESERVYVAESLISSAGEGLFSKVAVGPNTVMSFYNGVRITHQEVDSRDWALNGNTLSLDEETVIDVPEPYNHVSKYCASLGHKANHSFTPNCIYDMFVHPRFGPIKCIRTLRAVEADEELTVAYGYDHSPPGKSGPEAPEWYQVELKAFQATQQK
Experimental: To initiate the enzyme reaction, 5 μL of H3 peptide substrate (N′-[…]-LAGGKKC-C′) (SEQ ID NO:132) was added to 5 μL of 2×enzyme reaction solution containing SET7/9, SAM, and NEB HMT buffer. Generally, final concentrations are 50 μM H3 peptide, 0.1 U/μL SET7/9, 25 μM SAM, and lx NEB HMT buffer (50 mM Tris, pH 9.0, 5 mM MgCl2, and 4 mM DTT). The reaction solution was incubated at 37° C. for 2 hours to allow the enzyme reaction to proceed.
For the kinetics assay, the reaction conditions are the same as described above except 0.05 U/μL SET7/9 was used, and the enzyme reaction was heat inactivated at different time points. For the inhibition assay, the reaction conditions are the same as described in kinetics assay except varied concentrations of sinefungin was added to the enzyme reaction solution, the reaction solution was incubated at 37° C. for 6 min (see FIG. 16), then heat inactivated by incubation at 65° C. for 15 min. For the inhibition assay shown in FIG. 17, the reaction conditions are the same as described above except 40 μM H3 peptide, 0.1 U/μL SET7/9, 40 μM SAM were used instead.
To initiate the fluorescent biosensor reaction, 10 μL of the enzyme reaction was added to 90 μL of biosensor reaction solution containing renatured RNA, DFHBI, and buffer. […] In vitro fluorescence assays were conducted as described above.

[4] = In vitro fluorescence assays of SAH biosensors (turn-on, ligand selectivity); type: biochemical; conditions: for fluorescence response to SAH at low magnesium: 3 mM magnesium; for fluorescence turn-on: 37° C., 10 mM Mg^2+; for fluorescence in the presence of ATP: 10 mM ATP
Experimental: Other conditions, including temperature, concentrations of MgCl2, DFHBI, ligand or RNA, were varied in different experiments and are indicated in the figures. The RNA was renatured in buffer at 70° C. for 3 min and cooled to ambient temperature for 5 min prior to addition to the reaction solution. DFHBI was added to a solution containing buffer and ligand, and then RNA was added at the end before fluorescence measurement. Binding reactions were performed in 100 μL volumes and were incubated at the indicated temperature in a Corning Costar 3915 96-well black plate until equilibrium was reached, which in some cases takes 30 to 60 minutes. The fluorescence emission was measured using a Molecular Devices SpectraMax Paradigm Multi-Mode detection platform plate reader (Sunnyvale, Calif.) with the following instrument parameters: 448 nm excitation, 506 nm emission.

[5] = Binding affinity analysis of SAH biosensors
Experimental: The SAH concentration (cSAH) was varied, and the fluorescence of the sample with DFHBI but no RNA was subtracted as background to determine relative fluorescence units. The ratio between the fraction of biosensor that is bound by SAH and the total SAH biosensor concentration is given as:
The dissociation constants Kd were determined by least squares fitting to the following equation in Graphpad Prism software: […]

[6] = biological target: T2, SET7/9 (Homo sapiens, UniProt Q8WTS6); experiment: High-throughput screening (HTS) assay of SET7/9 activity and inhibition, Z′ score; type: biochemical; conditions: 384-well plate, 16 replicates, 300 μM sinefungin
T2 construct: purchased New England Biolabs Inc (Ipswich, Mass.)
T2 sequence (Q8WTS6 1-366): T1 sequence (Q8WTS6 1-366)
Experimental: For HTS experiments, samples were dispensed into a Grenier 781077 384-well flat bottom black plate using an Eppendorf Repeater […] pipetter to dispense reaction components. Z' scores were calculated from 16 well replicates in the 384-well plate. For the HTS SET7/9 activity assay, 3 μL of H3 peptide or water was added to 9 μL of reaction solution containing SET7/9 MTase, SAM, and NEB HMT Reaction Buffer in each well. Final concentrations are: 0.25 U/10 μL SET7/9, 25 μM SAM, 50 μM H3 peptide and 1×NEB HMT Reaction Buffer (50 mM Tris, pH 9.0, 5 mM MgCl2, and 4 mM DTT). After 30 min incubation at 37° C., to initiate the fluorescent biosensor reaction, 18 μL of biosensor reaction solution containing renatured RNA, DFHBI, and buffer was added to each well. […] In vitro fluorescence assays were conducted as described above. For the HTS SET7/9 inhibition assay, 4.5 μL of sinefungin or water was added to 8 μL of reaction solution containing SET7/9 MTase, and NEB HMT Reaction Buffer in each well. After 15 minutes incubation at 37° C., methylation reaction was initiated by adding 2.5 μL solution containing both SAM and H3 peptide. Final concentrations are: 0.25 U/10 μL SET7/9, 25 μM SAM, 50 μM H3 peptide, 300 μM sinefungin and 1×NEB HMT Reaction Buffer (50 mM Tris, pH 9.0, 5 mM MgCl2, and 4 mM DTT). After 30 min incubation at 37° C., to initiate the fluorescent biosensor reaction, 15 μL of biosensor reaction solution containing renatured RNA, DFHBI, and buffer was added to each well. […] In vitro fluorescence assays were conducted as described above.

[7] = system: E. coli BL21* wild-type and ΔMTAN cells; experiment: Live cell detection of SAH accumulation, wild-type versus MTAN knockout, flow cytometry; type: cell-based; conditions: E. coli BL21* MTAN knockout strain 2
Experimental: A Targetron® Gene Knockout System (Sigma-Aldrich) was used to knock out the MTAN gene from E. coli BL21*, following manufacturer protocols.
Preparation of cell samples for flow cytometry was carried out by inoculating 2 mL of auto-induction media/Carb (F. Studier, Protein Expression and Purification 2005, 41, 207-234) with E. coli BL21* cells from colonies grown on an LB/Carb culture plate, containing pET31b plasmids encoding RNA aptamers. […] Cells were then grown aerobically overnight to saturation (0D600 varied from 5 to 10) and diluted to OD600˜0.01-0.05 in M9 minimal media (pH ˜6.0) with 100 μM DFHBI-1T. Cellular fluorescence was measured for 30,000 cells using a Life Technologies Attune N×T Acoustic Focusing Cytometer.

[8] = system: E. coli BL21* cells; experiment: In vivo fluorescence of RNA aptamers by flow cytometry; type: cell-based; conditions: 100 μM DFHBI
Experimental: To compare the fluorescence of Spinach2 and cpSpinach2 in live cells, pET31b plasmids encoding the RNA aptamers in a tRNA scaffold were transformed into E. coli BL21* cells. Following IPTG induction of transcription, cells were incubated with DFHBI and fluorescence was quantitated by flow cytometry. The mean cellular fluorescence was measured as a function of increasing DFHBI concentration in the media, in order to determine the optimal conditions for aptamer fluorescence. Unexpectedly, full saturation of fluorescence was not observed, even when E. coli cells were incubated in media containing up to 800 μM DFHBI (FIG. 5). However, the non-specific fluorescence signal increased when DFHBI concentration exceeded 100 μM. Thus, to balance higher fluorescence activation and lower non-specific background, a concentration of 100 μM was adopted for further experiments. Under these conditions, cellular fluorescence activation for Spinach2 and cpSpinach2 was on average 34 and 22-fold over background, respectively (FIG. 6). Thus, cpSpinach2 is a functional alternative to Spinach2. Although it currently performs slightly poorer in terms of fluorescence activation in live cells, improvements are likely possible through directed mutagenesis for higher thermal stability, improved folding efficiency and less Mg^2+ dependency. […]

[9] = 3 mM magnesium (FIG. 22), read-out: in vitro measured binding affinity for SAH

CC1=N/C(=C\c2cc(F)c(O)c(F)c2)C(=O)N1C [DFHBI, (Z)-4-(3,5-difluoro-4-hydroxybenzylidene)-1,2-dimethyl-1H-imidazol-5(4H)-one]
Emission maximum [1]: 502 ± 1 nm
Excitation Maximum [1]: 428 ± 1 nm
Extinction coefficient [1]: 30018 M^−1- cm^−1
Fluorescence quantum yield ([1]; 30° C., 10 mM MgCl2): 0.00072 ± 0.00013
Emission maximum [2]: 489 nm
Excitation Maximum [2]: 423 nm
Extinction coefficient [2]: 30100 M^−1- cm^−1
Fluorescence quantum yield [2]: 0.0007

Nc1ncnc2c1ncn2[C@@H]1O[C@H](C[C@@H](N)CC[C@H](N)C(=O)O)[C@@H](O)[C@H]1O [Sinefungin]
IC50 ([3]; initial SAM concentration 40 μM): 42000 ± 16000 nM
IC50 ([3]; initial SAM concentration of 25 μM): 26000 ± 5000 nM

B1: Nmo1-4: SAH biosensor, SEQ ID NO: 65 (Table 2 prints 64) (nucleic acid)
chain: CTCGCCGAGGAGCGCTGCAACAGGTTGTTGAGTAGAGTGTGAGCTCCGTAACTAGTTACATCGCAAGATGTAACTGAATGAAATGGTGAAGGACGGGTCCACCTGCCAGGCTCGGCGATTATCGGGACCTTTAAACCAACGGCGCTCGGTTCAG
fluorescence response to SAH at low magnesium [4]: high fluorescence response to SAH
fluorescence turn-on [4]: ~9 fold
Kd [5, 9]: 750 nM
Z′ score, inhibitor screen [6]: 0.75
fold change in fluorescence between wild-type and MTAN knockout strain 2 [7]: 4.8 ×

B2: Spinach2: fluorophore-binding RNA aptamer, SEQ ID NO: 92 (nucleic acid)
chain: GATGTAACTGAATGAAATGGTGAAGGACGGGTCCAGTAGGCTGCTTCGGCAGCCTACTTGTTGAGTAGAGTGTGAGCTCCGTAACTAGTTACATC
modifications: expressed or natural sequence
cellular fluorescence activation over background [8]: 34 fold
fluorescence in the presence of ATP [4]: showed the same effect

B3: Mpe1-5: SAH biosensor, SEQ ID NO: 39 (nucleic acid)
chain: ACTTTCGAGGAGCGTTGCAACTCCCTTGTTGAGTAGAGTGTGAGCTCCGTAACTAGTTACATCGCAAGATGTAACTGAATGAAATGGTGAAGGACGGGTCCAGGGAGCCAGGCTCGAAAGTCATCCCCCGATGCAACGGCGCTCACCCGCA
fluorescence response to SAM ([4]; 10 μM of SAM): slight response to SAM
fluorescence response to SAH at low magnesium [4]: high fluorescence response to SAH
fluorescence in the presence of ATP [4]: lower fluorescence
fluorescence turn-on [4]: ~4 fold
Kd [5, 9]: 19 nM
Kd ([5]; 10 mM Mg^2+, 37° C., read-out: Kd for SAH): 75 ± 7 nM
fold change in fluorescence between wild-type and MTAN knockout strain 2 [7]: 2.0 ×

— US20180267027A1, “FLUORESCENT BIOSENSOR FOR […] ASSAY” (The Regents of the University of California, priority 2015, published 2018)
